Results as given in patent US20220098305A1.
Where a chain is given by its changes, count along the chain named.

B1: P1AE0289, CEA (A5B7) Fab (parental murine antibody) (Fab, V domains shown)
VH: EVKLVESGGGLVQPGGSLRLSCATSGFTFTDYYMNWVRQPPGKALEWLGFIGNKANGYTTEYSASVKGRFTISRDKSQSILYLQMNTLRAEDSATYYCTRDRGLRFYFDYWGQGTTLTVSS
VL: QTVLSQSPAILSASPGEKVTMTCRASSSVTYIHWYQQKPGSSPKSWIYATSNLASGVPARFSGSGSGTSYSLTISRVEAEDAATYYCQHWSSKPPTFGGGTKLEIK
B2: P1AE4135, Fab derived from P1AE2164 (Fab, V domains shown)
VH: EVQLLESGGGLVQPGGSLRLSCAASGFTFTDYYMNWVRQAPGKGLEWLGFIGNKANGYTTEYSASVKGRFTISRDKSKNTLYLQMNSLRAEDTATYYCTRDRGLRFYFDYWGQGTTVTVSS
VL: QTVLTQSPATLSLSPGERATLSCRASSSVTYIHWYQQKPGSSPKSWIYATSNLASGIPARFSGSGSGTDYTLTISSLEPEDFAVYYCQHWSSKPPTFGQGTKLEIK
B3: P1AE4143, Fab derived from P1AE2182 (Fab, V domains shown)
VH: B2 VH with L48V, T95V, T99A
VL: B2 VL with Q1E, T2I, S41Q, S42A, K44R, Y70F
B4: P1AE4139, Fab derived from P1AE2176 (Fab, V domains shown)
VH: B2 VH with L48V, K76N, T95V
VL: B2 VL with Q1E, T2I, Y70F
B5: P1AE4138, Fab derived from P1AE2167 (Fab, V domains shown)
VH: B2 VH
VL: B2 VL with Q1E, T2I, S41Q, S42A, K44R, Y70F
B6: P1AE4142, Fab derived from P1AE2181 (Fab, V domains shown)
VH: B2 VH with L48V, T95V, T99A
VL: B2 VL with Q1E, T2I, Y70F
B7: P1AE4140, Fab derived from P1AE2177 (Fab, V domains shown)
VH: B2 VH with L48V, K76N, T95V
VL: B2 VL with Q1E, T2I, S41Q, S42A, K44R, Y70F
B8: P1AE4137, Fab derived from P1AE2166 (Fab, V domains shown)
VH: B2 VH
VL: B2 VL with Q1E, T2I, Y70F
B9: P1AE4141, Fab derived from P1AE2179 (Fab, V domains shown)
VH: B2 VH with L48V, T95V, T99A
VL: B2 VL
B10: P1AE4136, Fab derived from P1AE2165 (Fab, V domains shown)
VH: B2 VH
VL: B2 VL with S41Q, S42A, K44R, S45L, W46L, Y70F

What follows are binders tested against human CEA (hu N(A2-B2)A-avi-His B) (human) (assay: SPR (Biacore T200), hu N(A2-B2)A-avi-His B immobilised, Fab as analyte, 1:1 Langmuir fit).
Sequence of human CEA (hu N(A2-B2)A-avi-His B) (human) (P06731 whole entry): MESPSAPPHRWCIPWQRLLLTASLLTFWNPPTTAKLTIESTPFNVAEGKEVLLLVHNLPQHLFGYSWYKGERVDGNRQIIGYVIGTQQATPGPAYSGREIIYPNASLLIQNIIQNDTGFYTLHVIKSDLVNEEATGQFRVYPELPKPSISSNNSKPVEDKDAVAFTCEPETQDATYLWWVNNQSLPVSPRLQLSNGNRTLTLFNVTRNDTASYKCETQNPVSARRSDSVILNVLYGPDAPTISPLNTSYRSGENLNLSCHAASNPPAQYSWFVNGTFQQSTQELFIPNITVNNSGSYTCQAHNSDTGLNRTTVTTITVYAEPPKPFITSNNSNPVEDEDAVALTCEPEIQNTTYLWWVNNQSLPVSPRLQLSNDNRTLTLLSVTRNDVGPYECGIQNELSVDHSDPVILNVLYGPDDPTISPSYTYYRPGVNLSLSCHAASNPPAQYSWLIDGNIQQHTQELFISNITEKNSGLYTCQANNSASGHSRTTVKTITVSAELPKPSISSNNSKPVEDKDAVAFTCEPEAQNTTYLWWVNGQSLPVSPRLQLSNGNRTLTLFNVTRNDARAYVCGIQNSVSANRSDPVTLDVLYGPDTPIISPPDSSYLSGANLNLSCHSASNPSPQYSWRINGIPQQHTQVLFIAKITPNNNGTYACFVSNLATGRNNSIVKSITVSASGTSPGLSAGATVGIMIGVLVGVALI

Row | Binder | Kd
1 | B1 | 0.559 nM
2 | B2 | 1.7 nM
3 | B3 | 2.92 nM
4 | B4 | 7.58 nM
5 | B5 | 1.47 nM
6 | B6 | 2.64 nM
7 | B7 | 7.62 nM
8 | B8 | 11.3 nM
9 | B9 | 1.83 nM
10 | B10 | 1.25 nM
